The RNAGym collection of RNA variant scans (doi:10.1073/pnas.2313332121)
This sample holds only a part of the variants without activity.

B1: TPR 5TU (parent)
chain: GGAUCUUCUCGAUCUAACAAAAAAGACAAAUCUGCCACAAAGCUUGAGAGCAUCUUCGGAUGCAGAGGCGGCAGCCUUCGGUGGCGCGAUAGCGCCAACGUUCUCAACUAUGACACGCAAAACGCGUGCUCCGUUGAAUGGAGUUUAUCAUG

Variants of: B1
Experiment: polymerase ribozyme fitness, log enrichment relative to wild type (log ratio); higher = more active; in vitro selection for triplet polymerase activity
Method in brief: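 One round of in vitro selection, in triplicate, was applied to PCR-built, transcribed mutant libraries of each subunit of a heterodimeric triplet polymerase ribozyme. The steps were annealing with a biotinylated primer, partner subunit and triplets, incubation frozen at −7 °C, gel excision of extended constructs, streptavidin-bead capture and RT-PCR. Fitness is the logarithm, base 2, of genotype enrichment over wild-type enrichment from inverse-variance-weighted replicate averages of Illumina-sequenced inputs and outputs, keeping genotypes with ≥10 input reads and ≥1 read per output.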

First: C10G A52C
Second: G11C C54U G62A A121U
The “polymerase ribozyme fitness (log ratio)” value of the first is lower: at most -4.2 for the first, -2.2 for the second.

A12C C57U C72A C93G U111G U146G and U9G A24U C35U A60C G71A G128A G143U A150G cannot be ordered by “polymerase ribozyme fitness (log ratio)” value: at most -4.2 for the first, at most -4.2 for the second.

Going from U9G U15A A30U U33G G42C U101A C105G A110U C118U A119G U139A A147C A150G to G11C C93U U101G G128U, the “polymerase ribozyme fitness (log ratio)” value rises from at most -4.2 to -3.85.

Going from A12C A29G C93U U104A U134A to G11C A22C G50U U56A C96A G141A, the “polymerase ribozyme fitness (log ratio)” value rises from at most -4.2 to -3.94.

Compared with A12C C36U C85U A147U, G11C A37C U82G C85G C105U C116G is lower in “polymerase ribozyme fitness (log ratio)” value: -1.81 for the first, at most -4.2 for the second.

C10U A23G U82G C95A and G11A A137C C149U cannot be ordered by “polymerase ribozyme fitness (log ratio)” value: at most -4.2 for the first, at most -4.2 for the second.

First: G11C G25C A41C U78A C99G
Second: G11U A19U G81U C95U
The “polymerase ribozyme fitness (log ratio)” value of the first is lower: -4.09 for the first, -1.81 for the second.

First: A12C C57A
Second: C10A A19G C57A G59A U82A C85U G141C
The “polymerase ribozyme fitness (log ratio)” value of the first is higher: -0.21 for the first, at most -4.2 for the second.

C10U A19U C35U C95U C99U and C10A C32G U139G cannot be ordered by “polymerase ribozyme fitness (log ratio)” value: at most -4.2 for the first, at most -4.2 for the second.

U9A U53C A64U C87A G136U A150G and C10G G48A G80A G84A A91C C114U C125U A142C cannot be ordered by “polymerase ribozyme fitness (log ratio)” value: at most -4.2 for the first, at most -4.2 for the second.

C10U U13G C14A A28C C54U G92C A113U A122G C129U and G11U A28C A49C C51A U53A C57U C95A G140A cannot be ordered by “polymerase ribozyme fitness (log ratio)” value: at most -4.2 for the first, at most -4.2 for the second.

G11A A16U A21U A60U C63A C85A G126U and G11A G83A G94U G128U U145G cannot be ordered by “polymerase ribozyme fitness (log ratio)” value: at most -4.2 for the first, at most -4.2 for the second.

Compared with G11A G50A C63U C93U, U9G U13C A24U A49C C51G A52C A73C U104A C108G is lower in “polymerase ribozyme fitness (log ratio)” value: -1.77 for the first, at most -4.2 for the second.

Going from G11A C85A A121U C149U to C10A A39C C54U C76U C87A, the “polymerase ribozyme fitness (log ratio)” value falls from -2.75 to at most -4.2.

C10A U45A C69U C72U and C10U U31A C57A U61A U77C C95A C99U C116U cannot be ordered by “polymerase ribozyme fitness (log ratio)” value: at most -4.2 for the first, at most -4.2 for the second.

Going from G11A A12U A52G U53C A91U to G11U C96U A119C, the “polymerase ribozyme fitness (log ratio)” value rises from -4.08 to -1.07.

Compared with C10G A98G, U9C A28G C38A C54G G88C C103A is lower in “polymerase ribozyme fitness (log ratio)” value: -4 for the first, at most -4.2 for the second.

Compared with C10G G88U C96U C132G, U9G C14A C85U is higher in “polymerase ribozyme fitness (log ratio)” value: at most -4.2 for the first, -4.02 for the second.

C10G U53A C54A G80C G84A C96G U104C C108U U145G and C10U G25C G46C G88U C95U A97U A142C cannot be ordered by “polymerase ribozyme fitness (log ratio)” value: at most -4.2 for the first, at most -4.2 for the second.

C10U G42A A49U A64G G71A U139C and A12C A30C A60G C75G G86U U90G A97C cannot be ordered by “polymerase ribozyme fitness (log ratio)” value: at most -4.2 for the first, at most -4.2 for the second.

Going from U9G G65A G81U C95U to G11A A20C A21U A52G U55C G94C C116U, the “polymerase ribozyme fitness (log ratio)” value rises from at most -4.2 to -4.05.

C10U U82A C87G A89U A142U and U9C U82A G92U C116U U134G cannot be ordered by “polymerase ribozyme fitness (log ratio)” value: at most -4.2 for the first, at most -4.2 for the second.

First: U9C U33G A39U U55A C57U A91C C95A G140U
Second: G11U G58C G84U A97U
The “polymerase ribozyme fitness (log ratio)” value of the first is lower: at most -4.2 for the first, -2.86 for the second.

First: C10U A16U G34U A39G G94A G141C
Second: G11U U31A A60G C93A
The “polymerase ribozyme fitness (log ratio)” value of the first is higher: -3.56 for the first, -3.94 for the second.

C10G A21G G59A and C10G G11U C79G G92U A110G C123G U130G A138G U146A cannot be ordered by “polymerase ribozyme fitness (log ratio)” value: at most -4.2 for the first, at most -4.2 for the second.

Going from C10U A37U C57G G58U C87G G140U U145A to G11C G92U, the “polymerase ribozyme fitness (log ratio)” value rises from at most -4.2 to -1.84.

C10G A64C G70A A97U U144G A150U and U9G A22G U31G A41G A91U C93U U135G cannot be ordered by “polymerase ribozyme fitness (log ratio)” value: at most -4.2 for the first, at most -4.2 for the second.

U9G C38U U44C G46A U56A C79G C96A A142G and C10G A20U A28U C35U C51G A64C G84U C123U cannot be ordered by “polymerase ribozyme fitness (log ratio)” value: at most -4.2 for the first, at most -4.2 for the second.

U9G C75U A150G and C10U A23G C36A G58U A113U cannot be ordered by “polymerase ribozyme fitness (log ratio)” value: at most -4.2 for the first, at most -4.2 for the second.

Going from C10G A22C C35U G86U A115G G124A to C10G U53A, the “polymerase ribozyme fitness (log ratio)” value rises from at most -4.2 to -3.48.

First: U9C A52C U61A C96G C103G A142C
Second: C10U U33A A49G C76U G81A A98G U102C A137C G140U
The “polymerase ribozyme fitness (log ratio)” value of the first is higher: -4 for the first, at most -4.2 for the second.

Going from G11C A40G U82A G94C G140U to G11U G94A G133C, the “polymerase ribozyme fitness (log ratio)” value rises from at most -4.2 to -2.79.

Going from C10U G48A G86A G88A C95A to C10G A22U, the “polymerase ribozyme fitness (log ratio)” value rises from at most -4.2 to -3.34.

Compared with G11C A26G C93A A120U G126C, C10G U82C G94U U102C A107C A138U is lower in “polymerase ribozyme fitness (log ratio)” value: -3.54 for the first, at most -4.2 for the second.

G11U G88C and C10G A26U A107U A115U C129A U148G cannot be ordered by “polymerase ribozyme fitness (log ratio)” value: at most -4.2 for the first, at most -4.2 for the second.

Going from U9C U31C A41C G48C A52U C93U C95A G140A to A12C A41U C75U A122C C125U, the “polymerase ribozyme fitness (log ratio)” value rises from at most -4.2 to -3.38.

C10G G11U A28C A37G G46U G88U C96U U102G C105U and C10G C54A G71A cannot be ordered by “polymerase ribozyme fitness (log ratio)” value: at most -4.2 for the first, at most -4.2 for the second.

U9G G11U U44A G50C C87A C105G and C10A U15G C57U G83C cannot be ordered by “polymerase ribozyme fitness (log ratio)” value: at most -4.2 for the first, at most -4.2 for the second.

First: G11C A122G
Second: C10A A66C C85U A98G A121C
The “polymerase ribozyme fitness (log ratio)” value of the first is higher: -2.55 for the first, at most -4.2 for the second.

G11C A30U U82C and U9C G88C A137C cannot be ordered by “polymerase ribozyme fitness (log ratio)” value: at most -4.2 for the first, at most -4.2 for the second.

First: C10U G143U
Second: G11U G94C A106G
The “polymerase ribozyme fitness (log ratio)” value of the first is lower: -3.61 for the first, -1.62 for the second.

For C10U A16U A28G G46A A91G C93A U111G G152U, the “polymerase ribozyme fitness (log ratio)” value was at most -4.2.
